Assay results taken from patent US20230125301A1 (published 2023).
Residue numbers refer to the chain shown, from its start.

B1: pdl1a-E-CLDN18L (bispecific antibody)
heavy: not shown
light: EVQLVESGGGLVQPGGSLRLSCAASGRTFVTYGMGWFRQAPGKGREFVSAISWSGSMTSYGDSVKGRFTISRDNAKNTLYLQMNSLRPEDTAVYYCAAALGAVVYTTREPYTYWGQGTLVTVSSEPKSSDKTHTSPPSPDIVMTQSPLSLPVTPGEPASISCKSSQTLLNSGNQKNYLTWYLQKPGQSPQLLIYWASTGESGVPDRFSGSGSGTDFTLKISRVEAEDVGVYYCQNAYFYPFTFGGGTKVEIKRTVAAPSVFIFPPSDEQLKSGTASVVCLLNNFYPREAKVQWKVDNALQSGNSQESVTEQDSKDSTYSLSSTLTLSKADYEKHKVYACEVTHQGLSSPVTKSFNRGEC
B2: CLDN18L-G15-pdl1a (bispecific antibody)
heavy: not shown
light: DIVMTQSPLSLPVTPGEPASISCKSSQTLLNSGNQKNYLTWYLQKPGQSPQLLIYWASTGESGVPDRFSGSGSGTDFTLKISRVEAEDVGVYYCQNAYFYPFTFGGGTKVEIKRTVAAPSVFIFPPSDEQLKSGTASVVCLLNNFYPREAKVQWKVDNALQSGNSQESVTEQDSKDSTYSLSSTLTLSKADYEKHKVYACEVTHQGLSSPVTKSFNRGECGGGGSGGGGSGGGGSEVQLVESGGGLVQPGGSLRLSCAASGRTFVTYGMGWFRQAPGKGREFVSAISWSGSMTSYGDSVKGRFTISRDNAKNTLYLQMNSLRPEDTAVYYCAAALGAVVYTTREPYTYWGQGTLVTVSS
B3: CLDN18L-E-pdl1a (bispecific antibody)
heavy: not shown
light: DIVMTQSPLSLPVTPGEPASISCKSSQTLLNSGNQKNYLTWYLQKPGQSPQLLIYWASTGESGVPDRFSGSGSGTDFTLKISRVEAEDVGVYYCQNAYFYPFTFGGGTKVEIKRTVAAPSVFIFPPSDEQLKSGTASVVCLLNNFYPREAKVQWKVDNALQSGNSQESVTEQDSKDSTYSLSSTLTLSKADYEKHKVYACEVTHQGLSSPVTKSFNRGECEPKSSDKTHTSPPSPEVQLVESGGGLVQPGGSLRLSCAASGRTFVTYGMGWFRQAPGKGREFVSAISWSGSMTSYGDSVKGRFTISRDNAKNTLYLQMNSLRPEDTAVYYCAAALGAVVYTTREPYTYWGQGTLVTVSS
B4: CLDN18L-E-pdl1b (bispecific antibody)
heavy: not shown
light: B3 light with M292S
B5: CLDN18H-G15-pdl1a (bispecific antibody)
heavy: not shown
light: DIVMTQSPLSLPVTPGEPASISCKSSQTLLNSGNQKNYLTWYLQKPGQSPQLLIYWASTGESGVPDRFSGSGSGTDFTLKISRVEAEDVGVYYCQNAYFYPFTFGGGTKVEIKRTVAAPSVFIFPPSDEQLKSGTASVVCLLNNFYPREAKVQWKVDNALQSGNSQESVTEQDSKDSTYSLSSTLTLSKADYEKHKVYACEVTHQGLSSPVTKSFNRGEC
B6: pdl1a-E-CLDN18H (bispecific antibody)
heavy: not shown
light: B5 light
B7: CLDN18L-G9-pdl1a (bispecific antibody)
heavy: not shown
light: DIVMTQSPLSLPVTPGEPASISCKSSQTLLNSGNQKNYLTWYLQKPGQSPQLLIYWASTGESGVPDRFSGSGSGTDFTLKISRVEAEDVGVYYCQNAYFYPFTFGGGTKVEIKRTVAAPSVFIFPPSDEQLKSGTASVVCLLNNFYPREAKVQWKVDNALQSGNSQESVTEQDSKDSTYSLSSTLTLSKADYEKHKVYACEVTHQGLSSPVTKSFNRGECGGGGSGGGSEVQLVESGGGLVQPGGSLRLSCAASGRTFVTYGMGWFRQAPGKGREFVSAISWSGSMTSYGDSVKGRFTISRDNAKNTLYLQMNSLRPEDTAVYYCAAALGAVVYTTREPYTYWGQGTLVTVSS
B8: CLDN18L-E2-pdl1a (bispecific antibody)
heavy: not shown
light: DIVMTQSPLSLPVTPGEPASISCKSSQTLLNSGNQKNYLTWYLQKPGQSPQLLIYWASTGESGVPDRFSGSGSGTDFTLKISRVEAEDVGVYYCQNAYFYPFTFGGGTKVEIKRTVAAPSVFIFPPSDEQLKSGTASVVCLLNNFYPREAKVQWKVDNALQSGNSQESVTEQDSKDSTYSLSSTLTLSKADYEKHKVYACEVTHQGLSSPVTKSFNRGECERKSSVESPPSPEVQLVESGGGLVQPGGSLRLSCAASGRTFVTYGMGWFRQAPGKGREFVSAISWSGSMTSYGDSVKGRFTISRDNAKNTLYLQMNSLRPEDTAVYYCAAALGAVVYTTREPYTYWGQGTLVTVSS
B9: CLDN18L-E4a-pdl1a (bispecific antibody)
heavy: not shown
light: B8 light with R222S, S224Y, S225G, V226P, E227P, S228G, S231G
B10: CLDN18L-E2a-pdl1a (bispecific antibody)
heavy: not shown
light: B8 light with S225G, S228G, S231G
B11: CLDN18L-E4-pdl1a (bispecific antibody)
heavy: not shown
light: B8 light with R222S, S224Y, S225G, V226P, E227P
B12: CLDN18L-Ea-pdl1a (bispecific antibody)
heavy: not shown
light: B3 light with T228G, T230G, S231G, S234G

molecular target: T1, human PD-L1 (human, UniProt Q9NZQ7 19-290); test: FACS binding, CHO-K1 cells
T1 sequence (Q9NZQ7 19-290): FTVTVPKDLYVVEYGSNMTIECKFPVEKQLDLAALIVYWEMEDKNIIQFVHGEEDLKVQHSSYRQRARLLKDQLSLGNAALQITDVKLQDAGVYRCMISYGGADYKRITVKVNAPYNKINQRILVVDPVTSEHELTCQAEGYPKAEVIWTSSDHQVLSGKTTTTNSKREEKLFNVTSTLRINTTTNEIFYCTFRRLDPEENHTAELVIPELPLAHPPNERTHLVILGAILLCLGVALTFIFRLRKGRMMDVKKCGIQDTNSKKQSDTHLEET

| EC50 [nM] | Binder |
| --- | --- |
| 0.131 | B1 |
| 0.456 | B2 |
| 0.262 | B3 |
| 0.516 | B4 |
| 0.525 | B5 |
| 0.0745 | B6 |

molecular target: T1, human PD-L1; test: FACS binding, CHO-K1 cells; remark: another data set of the same source

| EC50 [nM] | Binder |
| --- | --- |
| 0.107 | B1 |
| 0.404 | B2 |
| 0.418 | B7 |
| 0.215 | B3 |
| 0.219 | B5 |
| 0.143 | B6 |

molecular target: T1, human PD-L1; test: FACS binding, CHO-K1 cells; remark: another data set of the same source

| EC50 [nM] | Binder |
| --- | --- |
| 0.333 | B8 |
| 0.452 | B9 |
| 0.439 | B10 |
| 0.424 | B11 |
| 0.591 | B7 |
| 0.394 | B12 |
| 0.34 | B3 |
